Target: T1, recombinant soluble human CD4 (human, UniProt P01730 26-396, limits assumed)
T1 construct: Soluble recombinant CD4 used for ELISA and SPR/BIAcore; also called rCD4; sCD4
Experiment: BIAcore; rCD4 coupled to chip, mAb flowed (avidity)
Procedure: The rate and equilibrium constants presented in Table 19 were determined with a BIAcore, using antigen (rCD4) coupled to the sensor chip and flowing mAb over. These constants were derived from at least three independent experiments using purified mAbs.

B1: 6G5.1 (antibody, human IgG1, V domains shown)
VH: QVQLQQWGAGLLKPSETLSLTCAVYGGSFSGYYWSWIRQPPGKGLEWIGEINHSGSTNYNPSLKSRVTISVDTSKNQFSLKLSSVTAADTAVYYCARVINWFDPWGQGTLVTVSS
VL: DIQMTQSPSSVSASVGDRVTITCRASQDISSWLAWYQHKPGKAPKLLIYAASSLQSGVPSRFSGSGSGTDFTLTISSLQPEDFATYYCQQANSFPYTFGQGTKLEIK
notes: Human IgG1 kappa from a hybridoma of an HC2/KCo5 mouse; VH4-34/JH5, VkL19/Jk2; also called GGS
- kon: 11000 M⁻¹ s⁻¹

Source: patent US7041871
